Reference: patent US20020114797, “Composition and methods for modulating the length of telomeres” (Telogene Inc., published 2002)

What was measured:
[1] = target: T1, GST-UP1 (hnRNP A1 proteolytic fragment UP1) (UniProt P49312 P49312:1-196); experiment: pulldown; glutathione Sepharose beads, washes at 165 mM NaCl; highest recovery; plain beads less than 10% of bound; settings: tags: N-terminal GST fusion (inferred); label: 32P
Experimental: (§1) Following 5×1 ml washes in buffer containing 165 mM NaCl, the recovery of the labelled oligos was measured. The (TTAGGG)₃ oligonucleotide was recovered with the highest yield. A control experiment with plain beads yielded less that 10% of bound (TTAGGG)₃ oligonucleotide. A labelled DNA oligonucleotide containing the complementary sequence (CCCTAA)₃ was recovered at background level. […] UP1 associated directly with telomeric repeats carrying the TTAGGG sequence. Gel-shift assays performed with mutated oligonucleotides indicate that UP1 binds specifically to (TTAGGG)₃ oligonucleotide.
(§2) ³²P-labelled DNA oligonucleotides were mixed with Glutathione Sepharose 4B beads containing or lacking the GST-UP1 fusion protein. Following 5×1 ml washes in buffer containing 165 mM NaCl, the recovery of the labelled oligos was measured. The (TTAGGG)₃ oligonucleotide was recovered with the highest yield. A control experiment with plain beads yielded less that 10% of bound (TTAGGG)₃ oligonucleotide. A labelled DNA oligonucleotide containing the complementary sequence (CCCTAA)₃ was recovered at background level. […] Thus, UP1 can associate directly with telomeric repeats carrying the TTAGGG sequence. Furthermore, gel-shift assays performed with mutated oligonucleotides indicate that UP1 binds specifically to (TTAGGG)₃ oligonucleotide. […] It remains to be shown whether UP1 associates with telomeric repeats in vivo.

[2] = target: T1, GST-UP1 (hnRNP A1 proteolytic fragment …); experiment: pulldown; background level recovery; 165 mM NaCl washes; also tested by gel shift (FIG. 3 lane 9); settings: tags: N-terminal GST fusion (inferred); label: 32P
Experimental: as §1, §2

T1 sequence (P49312 1-196, one chain of several): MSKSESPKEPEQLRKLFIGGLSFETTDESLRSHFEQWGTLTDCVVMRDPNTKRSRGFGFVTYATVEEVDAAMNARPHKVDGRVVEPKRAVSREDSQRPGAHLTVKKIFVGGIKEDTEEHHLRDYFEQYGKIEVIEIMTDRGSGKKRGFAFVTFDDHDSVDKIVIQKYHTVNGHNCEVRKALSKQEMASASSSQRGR

B1: vertebrate telomeric (TTAGGG)3 (ssDNA)
DNA: TTAGGGTTAGGGTTAGGG
B1: binds [1].

B2: complementary C-strand (CCCTAA)3 (ssDNA)
DNA: CCCTAACCCTAACCCTAA
B2: no binding [2].
